Blank lines part the entries; values can stand above or below the binder they belong to.
Key:
[1] = target: T1, human glycophorin A on human red blood cells (human, UniProt P02724 20-150); assay: partition to human RBC, human HemA plasma, 120 min
T1 construct: whole, on cells; also called human GPA; huGPA
T1 sequence (looked up): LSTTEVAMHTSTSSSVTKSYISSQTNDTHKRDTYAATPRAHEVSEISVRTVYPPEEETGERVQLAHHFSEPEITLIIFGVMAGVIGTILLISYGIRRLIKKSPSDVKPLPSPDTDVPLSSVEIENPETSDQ
Procedure: (§1) The supernatant containing plasma, platelets and white blood cells was discarded and the red blood cell pellet was resuspended in 10 pellet volumes of PBS (50 mM Phosphate buffer, pH7.4, 150 mM NaCl). The red blood cells were then pelleted by slow speed centrifugation and the red blood cells re-suspended in 10 volumes of PBS. This washing step was repeated 4 more times and the red blood cells finally resuspended in a volume of plasma from Hemophilia patients with less than 1% of normal levels of FVIII (GeorgeKing Bio-Medical, Overland Park, Kans.) to generate a total volume equal to the initial blood volume such that the RBC density was equal to that of normal whole blood. BDD and RBC targeted FVIII molecules were then spiked into RBC suspension in HemA plasma at 1 IU/mL, and incubated at room temperature for 2-3 hours with gentle rotation. […] An additional control was performed in which BDD or RBC targeted FVIII molecules were added at 11U/ml into the same human hemophilia A plasma and incubated for 5 minutes and 180 mins. These samples were used to determine the input FVIII activity in the presence of plasma which was used to calculate the percentage of the molecule that was bound to RBC. All plasma samples were then assayed together for FVIII activity using the Coatest SP assay (DiaPharma, Columbus, Ohio). The assay was performed following the manufacturer's instructions in a 96-well plate format. […] The plate was incubated at 37° C. for 10 minutes with shaking between each reagent addition. […] The amount of FVIII activity in the plasma reflects the amount of unbound FVIII. The FVIII activity of the same molecule spiked in to Hemophilia A plasma alone (no RBC) and incubated for 5 minutes was normalized to 100%.

[2] = target: T2, Cynomolgus monkey glycophorin A on Cynomolgus monkey red blood cells (Cynomolgus monkey); assay: partition to Cyno RBC, human HemA plasma, 5 min;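 note: FVIII fusion spiked at 1 IU/mL into RBC suspension at whole-blood density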
T2 construct: whole, on cells; also called Cyno GPA; Cyno RBC
Procedure: (§2) To evaluate partition to cynomolgus monkey or human red blood cells, whole blood was draw from Cynomolgus monkey or normal human volunteers in to anticoagulant with 4% sodium citrate (Sigma, St Louis, Mo.). The red blood cells were purified by layering the whole blood on to ficoll followed by low speed centrifugation. The supernatant containing plasma, platelets and white blood cells was discarded and the red blood cell pellet was resuspended in 10 pellet volumes of PBS (50 mM Phosphate buffer, pH7.4, 150 mM NaCl). The red blood cells were then pelleted by slow speed centrifugation and the red blood cells re-suspended in 10 volumes of PBS. This washing step was repeated 4 more times and the red blood cells finally resuspended in a volume of plasma from Hemophilia patients with less than 1% of normal levels of FVIII (GeorgeKing Bio-Medical, Overland Park, Kans.) to generate a total volume equal to the initial blood volume such that the RBC density was equal to that of normal whole blood. BDD and RBC targeted FVIII molecules were then spiked into RBC suspension in HemA plasma at 1 IU/mL, and incubated at room temperature for 2-3 hours with gentle rotation. […] An additional control was performed in which BDD or RBC targeted FVIII molecules were added at 11U/ml into the same human hemophilia A plasma and incubated for 5 minutes and 180 mins. These samples were used to determine the input FVIII activity in the presence of plasma which was used to calculate the percentage of the molecule that was bound to RBC. All plasma samples were then assayed together for FVIII activity using the Coatest SP assay (DiaPharma, Columbus, Ohio). The assay was performed following the manufacturer's instructions in a 96-well plate format. […] The plate was incubated at 37° C. for 10 minutes with shaking between each reagent addition.

[3] = target: T1, human glycophorin A on human red blood …; assay: partition to human RBC, human HemA plasma, 15 min
[4] = target: T2, Cynomolgus monkey glycophorin A on …; assay: partition to Cyno RBC, human HemA plasma, 60 min;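 note: FVIII fusion spiked at 1 IU/mL into RBC suspension at whole-blood density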
[5] = target: T2, Cynomolgus monkey glycophorin A on …; assay: partition to Cyno RBC, human HemA plasma, 120 min;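 note: FVIII fusion spiked at 1 IU/mL into RBC suspension at whole-blood density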
Procedure: as §2

[6] = target: T2, Cynomolgus monkey glycophorin A on …; assay: partition to Cyno RBC, human HemA plasma, 30 min;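 note: FVIII fusion spiked at 1 IU/mL into RBC suspension at whole-blood density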
[7] = target: T1, human glycophorin A on human red blood …; assay: partition to human RBC, human HemA plasma, 60 min
[8] = target: T2, Cynomolgus monkey glycophorin A on …; assay: partition to Cyno RBC, human HemA plasma, 15 min;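 note: FVIII fusion spiked at 1 IU/mL into RBC suspension at whole-blood density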
Procedure: as §2

[9] = target: T1, human glycophorin A on human red blood …; assay: partition to human RBC, human HemA plasma, 120 min; remark: listed apart in the source
[10] = target: T2, Cynomolgus monkey glycophorin A on …; assay: partition to Cyno RBC, human HemA plasma, 1 min;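 note: FVIII fusion spiked at 1 IU/mL into RBC suspension at whole-blood density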
[11] = target: T1, human glycophorin A on human red blood …; assay: partition to human RBC, human HemA plasma, 1 min
Procedure: as §1

[12] = target: T1, human glycophorin A on human red blood …; assay: partition to human RBC, human HemA plasma, 30 min
Procedure: as §1

[13] = target: T1, human glycophorin A on human red blood …; assay: partition to human RBC, human HemA plasma, 5 min
Procedure: as §1

- percentage bound to human RBC [1]: 95.6%
- % bound to Cyno RBC [2]: 83%
- percentage bound to human RBC [3]: 94.4%
- % bound to Cyno RBC [4]: 89%
- % bound to Cyno RBC [5]: 89.1%
- % bound to Cyno RBC [6]: 87.8%
- percentage bound to human RBC [7]: 95.2%
- % bound to Cyno RBC [8]: 87.2%
- percentage bound to human RBC [9]: 95.6%
- % bound to Cyno RBC [10]: 62.9%
- percentage bound to human RBC [11]: 76.5%
- percentage bound to human RBC [12]: 94.5%
- percentage bound to human RBC [13]: 90.5%
B1: TPP-9424 FVIII-scFv fusion protein (other)
chain: DIQLTQSPSFLSASVGDRVTITCRASSSVRYIYWFQQKPGKAPKLLIYATSFRQSGVPSRFSGSGSGTEYTLTISSLQPEDFATYYCHQRNSFPYTFGQGTKLEIKGGGGSGGGGSGGGGSGGGGSEVQLVQSGAEVKKPGASVKVSCKASGYTFTTYAIHWVRQAPGQGLEWMGYINPSSGYTRYNPKFKGRVTMTRDKSTSTAYMELRSLRSDDTAVYYCWTGTRDYWGQGTTVTVSSGGGSGGGGSGLVPRGSGGGSGGGGSGATRRYYLGAVELSWDYMQSDLGELPVDARFPPRVPKSFPFNTSVVYKKTLFVEFTDHLFNIAKPRPPWMGLLGPTIQAEVYDTVVITLKNMASHPVSLHAVGVSYWKASEGAEYDDQTSQREKEDDKVFPGGSHTYVWQVLKENGPMASDPLCLTYSYLSHVDLVKDLNSGLIGALLVCREGSLAKEKTQTLHKFILLFAVFDEGKSWHSETKNSLMQDRDAASARAWPKMHTVNGYVNRSLPGLIGCHRKSVYWHVIGMGTTPEVHSIFLEGHTFLVRNHRQASLEISPITFLTAQTLLMDLGQFLLFCHISSHQHDGMEAYVKVDSCPEEPQLRMKNNEEAEDYDDDLTDSEMDVVRFDDDNSPSFIQIRSVAKKHPKTWVHYIAAEEEDWDYAPLVLAPDDRSYKSQYLNNGPQRIGRKYKKVRFMAYTDETFKTREAIQHESGILGPLLYGEVGDTLLIIFKNQASRPYNIYPHGITDVRPLYSRRLPKGVKHLKDFPILPGEIFKYKWTVTVEDGPTKSDPRCLTRYYSSFVNMERDLASGLIGPLLICYKESVDQRGNQIMSDKRNVILFSVFDENRSWYLTENIQRFLPNPAGVQLEDPEFQASNIMHSINGYVFDSLQLSVCLHEVAYWYILSIGAQTDFLSVFFSGYTFKHKMVYEDTLTLFPFSGETVFMSMENPGLWILGCHNSDFRNRGMTALLKVSSCDKNTGDYYEDSYEDISAYLLSKNNAIEPRSFSQNDENQSPRSFQKKTRHYFIAAVERLWDYGMSSSPHVLRNRAQSGSVPQFKKVVFQEFTDGSFTQPLYRGELNEHLGLLGPYIRAEVEDNIMVTFRNQASRPYSFYSSLISYEEDQRQGAEPRKNFVKPNETKTYFWKVQHHMAPTKDEFDCKAWAYFSDVDLEKDVHSGLIGPLLVCHTNTLNPAHGRQVTVQEFALFFTIFDETKSWYFTENMERNCRAPCNIQMEDPTFKENYRFHAINGYIMDTLPGLVMAQDQRIRWYLLSMGSNENIHSIHFSGHVFTVRKKEEYKMALYNLYPGVFETVEMLPSKAGIWRVECLIGEHLHAGMSTLFLVYSNKCQTPLGMASGHIRDFQITASGQYGQWAPKLARLHYSGSINAWSTKEPFSWIKVDLLAPMIIHGIKTQGARQKFSSLYISQFIIMYSLDGKKWQTYRGNSTGTLMVFFGNVDSSGIKHNIFNPPIIARYIRLHPTHYSIRSTLRMELMGCDLNSCSMPLGMESKAISDAQITASSYFTNMFATWSPSKARLHLQGRSNAWRPQVNNPKEWLQVDFQKTMKVTGVTTQGVKSLLTSMYVKEFLISSSQDGHQWTLFFQNGKVKVFQGNQDSFTPVVNSLDPPLLTRYLRIHPQSWVHQIALRMEVLGCEAQDLY
notes: also called PPB 7888

- percentage bound to human RBC [1]: 0%
- percentage bound to human RBC [3]: 4%
- percentage bound to human RBC [7]: 2%
- percentage bound to human RBC [11]: 0%
- percentage bound to human RBC [12]: 0%
- percentage bound to human RBC [13]: 2%
B2: B-domain deleted FVIII (other, human, UniProt P00451 20-2351, looked up)
chain: ATRRYYLGAVELSWDYMQSDLGELPVDARFPPRVPKSFPFNTSVVYKKTLFVEFTDHLFNIAKPRPPWMGLLGPTIQAEVYDTVVITLKNMASHPVSLHAVGVSYWKASEGAEYDDQTSQREKEDDKVFPGGSHTYVWQVLKENGPMASDPLCLTYSYLSHVDLVKDLNSGLIGALLVCREGSLAKEKTQTLHKFILLFAVFDEGKSWHSETKNSLMQDRDAASARAWPKMHTVNGYVNRSLPGLIGCHRKSVYWHVIGMGTTPEVHSIFLEGHTFLVRNHRQASLEISPITFLTAQTLLMDLGQFLLFCHISSHQHDGMEAYVKVDSCPEEPQLRMKNNEEAEDYDDDLTDSEMDVVRFDDDNSPSFIQIRSVAKKHPKTWVHYIAAEEEDWDYAPLVLAPDDRSYKSQYLNNGPQRIGRKYKKVRFMAYTDETFKTREAIQHESGILGPLLYGEVGDTLLIIFKNQASRPYNIYPHGITDVRPLYSRRLPKGVKHLKDFPILPGEIFKYKWTVTVEDGPTKSDPRCLTRYYSSFVNMERDLASGLIGPLLICYKESVDQRGNQIMSDKRNVILFSVFDENRSWYLTENIQRFLPNPAGVQLEDPEFQASNIMHSINGYVFDSLQLSVCLHEVAYWYILSIGAQTDFLSVFFSGYTFKHKMVYEDTLTLFPFSGETVFMSMENPGLWILGCHNSDFRNRGMTALLKVSSCDKNTGDYYEDSYEDISAYLLSKNNAIEPRSFSQNPPVLKRHQREITRTTLQSDQEEIDYDDTISVEMKKEDFDIYDEDENQSPRSFQKKTRHYFIAAVERLWDYGMSSSPHVLRNRAQSGSVPQFKKVVFQEFTDGSFTQPLYRGELNEHLGLLGPYIRAEVEDNIMVTFRNQASRPYSFYSSLISYEEDQRQGAEPRKNFVKPNETKTYFWKVQHHMAPTKDEFDCKAWAYFSDVDLEKDVHSGLIGPLLVCHTNTLNPAHGRQVTVQEFALFFTIFDETKSWYFTENMERNCRAPCNIQMEDPTFKENYRFHAINGYIMDTLPGLVMAQDQRIRWYLLSMGSNENIHSIHFSGHVFTVRKKEEYKMALYNLYPGVFETVEMLPSKAGIWRVECLIGEHLHAGMSTLFLVYSNKCQTPLGMASGHIRDFQITASGQYGQWAPKLARLHYSGSINAWSTKEPFSWIKVDLLAPMIIHGIKTQGARQKFSSLYISQFIIMYSLDGKKWQTYRGNSTGTLMVFFGNVDSSGIKHNIFNPPIIARYIRLHPTHYSIRSTLRMELMGCDLNSCSMPLGMESKAISDAQITASSYFTNMFATWSPSKARLHLQGRSNAWRPQVNNPKEWLQVDFQKTMKVTGVTTQGVKSLLTSMYVKEFLISSSQDGHQWTLFFQNGKVKVFQGNQDSFTPVVNSLDPPLLTRYLRIHPQSWVHQIALRMEVLGCEAQDLY
notes: Untargeted control without scFv; also called BDD-FVIII; BDD

From patent US20190359687A1 (Bayer, published 2019)
